According to doi:10.1101/2025.01.09.632101:

Target: DPEP1-Avi: porcine DPEP1 ectodomain (residues 17-385) with Strep and Avi tags, biotinylated (porcine (Sus scrofa)) (UniProt P22412)
Experiment: BLI

Chain of UniProt P22412 (P22412 17-385): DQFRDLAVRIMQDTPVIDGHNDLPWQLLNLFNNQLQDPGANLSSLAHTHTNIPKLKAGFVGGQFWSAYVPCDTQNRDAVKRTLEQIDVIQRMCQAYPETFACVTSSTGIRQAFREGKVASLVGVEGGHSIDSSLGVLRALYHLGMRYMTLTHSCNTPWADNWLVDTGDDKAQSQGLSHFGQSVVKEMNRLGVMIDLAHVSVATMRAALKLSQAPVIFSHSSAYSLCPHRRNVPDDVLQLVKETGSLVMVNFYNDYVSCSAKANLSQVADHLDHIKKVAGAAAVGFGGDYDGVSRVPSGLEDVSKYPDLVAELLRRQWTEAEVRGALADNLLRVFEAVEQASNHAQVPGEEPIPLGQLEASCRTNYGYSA

Substance: PHEV spike RBD (residues 327-605), from Expi293F cells, with His, Strep and Avi tags (domain or fragment)
- Kd: 1500 nM
